According to the RNAGym collection of RNA variant scans (doi:10.7554/elife.80360):

B1: Hammerhead Ribozyme (parent)
chain: ACCGGAUGUGCUUUCCGGUCUGAUGAGUCCGUGAGGACGAAACAG

Variants of: B1
Assay: self-cleavage, relative activity (ratio to wild type); higher = more cleavage; co-transcriptional

Variant	self-cleavage
ACCGGAUGUGCUUUCCGGUCAGAUGAAUCCGUGAGGACGAAACAG [U21A G27A]	0.363
ACCGGAUGUGCUUUCCGGUCAGAUGAUUCCGUGAGGACGAAACAG [U21A G27U]	0.294
ACCGGAUGUGCUUUCCGGUCAGAUGACUCCGUGAGGACGAAACAG [U21A G27C]	0.296
ACCGGAUGUGCUUUCCGGUUUGAUGAGUCCGUGAGGACGAAAGAG [C20U C43G]	0.278
ACCGGAUGUGCUUUCCGGUUUGAUGAGUCCGUGAGGACGAAAAAG [C20U C43A]	0.264
ACCGGAUGUGCUUUCCGGUUUGAUGAGUCCGUGAGGACGAAAUAG [C20U C43U]	0.325
ACCGGAUGUGCUUUCCGGUUUGAUGAGUCCGUGAGGACGAGACAG [C20U A41G]	0.349
ACCGGAUGUGCUUUCCGGUUUGAUGAGUCCGUGAGGACGACACAG [C20U A41C]	0.373
ACCGGAUGUGCUUUCCGGUUUGAUGAGUCCGUGAGGACGAUACAG [C20U A41U]	0.37
ACCGGAUGUGCUUUCCGGUUUGAUGAGUCCGUAAGGACGAAACAG [C20U G33A]	0.867
ACCGGAUGUGCUUUCCGGUUUGAUGAGUCCGUUAGGACGAAACAG [C20U G33U]	0.762
ACCGGAUGUGCUUUCCGGUUUGAUGAGUCCGUCAGGACGAAACAG [C20U G33C]	0.682
ACCGGAUGUGCUUUCCGGUCAGAUGAGUCCGUGAGGACGAAACAG [U21A]	0.687
ACCGGAUGUGCUUUCCGGUUUGAUGAGUCCCUGAGGACGAAACAG [C20U G31C]	0.489
ACCGGAUGUGCUUUCCGGUUUGAUGAGUCCUUGAGGACGAAACAG [C20U G31U]	0.718
ACCGGAUGUGCUUUCCGGUUUGAUGAGUCCAUGAGGACGAAACAG [C20U G31A]	0.783
ACCGGAUGUGCUUUCCGGUUUGAUGAGUCCGUGAGGACGAAACCG [C20U A44C]	0.376
ACCGGAUGUGCUUUCCGGUUUGAUGAGUCCGUGAGGACGAAACUG [C20U A44U]	0.324
ACCGGAUGUGCUUUCCGGUUUGAUGAGUCCGUGAGGACGAAACGG [C20U A44G]	0.962

Variant	self-cleavage
ACCGGAUGUGCUUUCCGGUUUGAUGACUCCGUGAGGACGAAACAG [C20U G27C]	0.409
ACCGGAUGUGCUUUCCGGUUUGAUGAAUCCGUGAGGACGAAACAG [C20U G27A]	0.373
ACCGGAUGUGCUUUCCGGUUUGAUGAUUCCGUGAGGACGAAACAG [C20U G27U]	0.332
ACCGGAUGUGCUUUCCGGUCAGAUGAGUCCGUGAGGACGAAACUG [U21A A44U]	0.283
ACCGGAUGUGCUUUCCGGUCAGAUGAGUCCGUGAGGACGAAACGG [U21A A44G]	0.932
ACCGGAUGUGCUUUCCGGUCAGAUGAGUCCGUGAGGACGAAACCG [U21A A44C]	0.415
ACCGGAUGUGCUUUCCGGUCAGAUGAGUCUGUGAGGACGAAACAG [U21A C30U]	0.57
ACCGGAUGUGCUUUCCGGUCAGAUGAGUCGGUGAGGACGAAACAG [U21A C30G]	0.448
ACCGGAUGUGCUUUCCGGUCAGAUGAGUCAGUGAGGACGAAACAG [U21A C30A]	0.511
ACCGGAUGUGCUUUCCGGUUUAAUGAGUCCGUGAGGACGAAACAG [C20U G22A]	0.338
ACCGGAUGUGCUUUCCGGUUUCAUGAGUCCGUGAGGACGAAACAG [C20U G22C]	0.377
ACCGGAUGUGCUUUCCGGUUUUAUGAGUCCGUGAGGACGAAACAG [C20U G22U]	0.341
ACCGGAUGUGCUUUCCGGUUUGAUGAGUCCGUGAGGACGAAACAU [C20U G45U]	0.387
ACCGGAUGUGCUUUCCGGUUUGAUGAGUCCGUGAGGACGAAACAA [C20U G45A]	0.359
ACCGGAUGUGCUUUCCGGUUUGAUGAGUCCGUGAGGACGAAACAC [C20U G45C]	0.471
ACCGGAUGUGCUUUCCGGUCAGAUGAGUCCGUGAGGAAGAAACAG [U21A C38A]	0.363
ACCGGAUGUGCUUUCCGGUCAGAUGAGUCCGUGAGGAGGAAACAG [U21A C38G]	0.378
ACCGGAUGUGCUUUCCGGUCAGAUGAGUCCGUGAGGAUGAAACAG [U21A C38U]	0.401
ACCGGAUGUGCUUUCCGGUCAGAUGCGUCCGUGAGGACGAAACAG [U21A A26C]	0.299

Variant	self-cleavage
ACCGGAUGUGCUUUCCGGUCAGAUGUGUCCGUGAGGACGAAACAG [U21A A26U]	0.356
ACCGGAUGUGCUUUCCGGUCAGAUGGGUCCGUGAGGACGAAACAG [U21A A26G]	0.346
ACCGGAUGUGCUUUCCGGUCAAAUGAGUCCGUGAGGACGAAACAG [U21A G22A]	0.35
ACCGGAUGUGCUUUCCGGUCAUAUGAGUCCGUGAGGACGAAACAG [U21A G22U]	0.407
ACCGGAUGUGCUUUCCGGUCACAUGAGUCCGUGAGGACGAAACAG [U21A G22C]	0.31
ACCGGAUGUGCUUUCCGGUUUGAUGAGUCCGUGAAGACGAAACAG [C20U G35A]	0.412
ACCGGAUGUGCUUUCCGGUUUGAUGAGUCCGUGACGACGAAACAG [C20U G35C]	0.407
ACCGGAUGUGCUUUCCGGUUUGAUGAGUCCGUGAUGACGAAACAG [C20U G35U]	0.347
ACCGGAUGUGCUUUCCGGUCAGAUGAGUCCGUGAGGACGGAACAG [U21A A40G]	0.271
ACCGGAUGUGCUUUCCGGUCAGAUGAGUCCGUGAGGACGCAACAG [U21A A40C]	0.315
ACCGGAUGUGCUUUCCGGUCAGAUGAGUCCGUGAGGACGUAACAG [U21A A40U]	0.338
ACCGGAUGUGCUUUCCGGUUUGAUGAGUCCGUGAGGACGCAACAG [C20U A40C]	0.407
ACCGGAUGUGCUUUCCGGUUUGAUGAGUCCGUGAGGACGGAACAG [C20U A40G]	0.41
ACCGGAUGUGCUUUCCGGUUUGAUGAGUCCGUGAGGACGUAACAG [C20U A40U]	0.246
ACCGGAUGUGCUUUCCGGUCAGAUGAGUUCGUGAGGACGAAACAG [U21A C29U]	0.558
ACCGGAUGUGCUUUCCGGUCAGAUGAGUGCGUGAGGACGAAACAG [U21A C29G]	0.354
ACCGGAUGUGCUUUCCGGUCAGAUGAGUACGUGAGGACGAAACAG [U21A C29A]	0.31
ACCGGAUGUGCUUUCCGGUCAGAUAAGUCCGUGAGGACGAAACAG [U21A G25A]	0.334
ACCGGAUGUGCUUUCCGGUCAGAUUAGUCCGUGAGGACGAAACAG [U21A G25U]	0.333
